Assay results from paper PMC12412469 (2025).

Experiments:
[1] = target: T1, Recombinant Human VEGF165 (human, UniProt P15692-4 1-191)
T1 chain: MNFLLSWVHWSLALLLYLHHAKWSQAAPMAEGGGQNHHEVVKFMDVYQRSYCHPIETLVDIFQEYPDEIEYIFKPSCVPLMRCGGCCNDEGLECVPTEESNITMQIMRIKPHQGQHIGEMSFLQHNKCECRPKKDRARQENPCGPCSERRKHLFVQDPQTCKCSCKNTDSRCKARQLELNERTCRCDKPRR

[2] = target: T1, Recombinant Human VEGF165; assay: SPR
[3] = target: T1, Recombinant Human VEGF165; assay: SPR; rhVEGF165 amine-coupled to a CM5 chip; designs injected (multi-cycle kinetics, 60 s injection, 60 s dissociation); PBS with 0.05% Tween-20; 25 °C; 10 µL/min; 1:1 binding assumed, linearization method
[4] = target: T2, Biotinylated Recombinant Human IL-7R alpha/CD127 Fc Chimera Avi-tag (human, UniProt P16871 21-239, biotin (biotinylated Avi-tag)); assay: SPR
T2 chain: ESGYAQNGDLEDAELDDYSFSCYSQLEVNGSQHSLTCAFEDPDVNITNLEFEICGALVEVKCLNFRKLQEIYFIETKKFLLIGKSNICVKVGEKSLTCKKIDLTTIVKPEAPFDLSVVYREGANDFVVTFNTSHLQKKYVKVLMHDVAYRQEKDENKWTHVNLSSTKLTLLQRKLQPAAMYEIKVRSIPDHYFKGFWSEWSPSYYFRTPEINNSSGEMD

Row | Binder | koff [2] [s⁻¹] | koff [4] [s⁻¹] | further results
1 | Sam0.7 (designed binder) LPTAEEVQKLMARYIELMDVGDIEAIVQMYADDATVEAPFGAPPIHGRERIAYFYRRMLGGGIARATLTGPVRASHNGTGAMPFRVEYVFNGQPFAMDVRVEMRFDEHGRIQTMQAYWDWVNLSVREP | 0.0309 |  | proliferation of the VEGF-sensitive leukemia cell line U937 (CellTiter-Blue, 72 h), 1 to 100 µg/mL of the binder, percent of untreated control [1]: 50%; Kd [3]: 190 nM
2 | 5NLC scaffold (unmutated template) (other) MAQIAERLASLRSQLPPSVQLIAVSKNHPAAAIREAYAAGQRHFGENRVQEAIAKQAELTDLPDLTWHLLGKLQSNKARKAVEHFDWIHSVDSWALAERLDRIAGELGRSPKLCLQVKLLPDPNKAGWDPADLRAELPQLSQLQQVQIRGLMVIAPLGLTAAETQALFAQARTFAAELQQQAPQLRLTELSMGMSSDWPLAVAEGATWIRVGTQLFGPRSL |  | 0.375 | 
3 | Sima3.2 (designed binder) STNISPKQGLDKAKYFSGKWYLTHVLIKDPKIVSQFCASFTPRESDGTVKIAVYLYLAIKKTSDYAIGEGKLESSGLQYTATSKVVDKKKAVLKELDERHSYTVTVLEADDSSALTHITVREGSKDYGDYYLVLTHQKDAEPSAKVKSAVTQAGLQLSQFVGTKDLGCQYDDQFTSL | 0.0006 |  | other [1]: 50%; Kd [2]: 14 nM
4 | 6YUD scaffold (unmutated template) (other) MKFAVIDRKNFTLIHFEIEKPIKPEILKEIEIPSVDTRKGVVISGRGPIWLHCFLAHKYAHTPFVAVYDPRLGAVVVQSHSELREGDVIDVVVEEILKGGVRHV |  | 0.0821 | 
